# Measurements reported in patent US20110165066A1 (AbbVie / Abbott, published 2011).
# Read-outs that look alike come from different tables or passages of the source.
# T1: mouse IL-13 (mouse, UniProt P20109 26-131, limits assumed)
# T1 construct: also called mIL-13; murine IL-13
# T1 sequence (looked up): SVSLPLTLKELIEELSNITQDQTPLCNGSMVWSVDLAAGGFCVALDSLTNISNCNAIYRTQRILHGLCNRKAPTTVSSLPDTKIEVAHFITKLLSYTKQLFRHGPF
# How the values were obtained:
# human IL-13 wild type [1] = target: T2, human IL-13 wild type (human, UniProt P35225 35-146); assay: SPR (Biacore)
# T2 construct: also called h IL-13; h IL-13 wt
# Protocol: (§1) The BIACORE assay (Biacore, Inc, Piscataway, N.J.) determines the affinity of antibodies with kinetic measurements of on-, off-rate constants. […] All chemicals were obtained from Biacore® AB (Uppsala, Sweden) or otherwise from a different source as described in the text. Approximately 5000 RU of goat anti-mouse IgG, (Fcγ), fragment specific polyclonal antibody (Pierce Biotechnology Inc, Rockford, Ill.) diluted in 10 mM sodium acetate (pH 4.5) was directly immobilized across a CM5 research grade biosensor chip using a standard amine coupling kit according to manufacturer's instructions and procedures at 25 μg/ml. Unreacted moieties on the biosensor surface were blocked with ethanolamine. Modified carboxymethyl dextran surface in flowcell 2 and 4 was used as a reaction surface. Unmodified carboxymethyl dextran without goat anti-mouse IgG in flow cell 1 and 3 was used as the reference surface. For kinetic analysis, rate equations derived from the 1:1 Langmuir binding model were fitted simultaneously to association and dissociation phases of all eight injections (using global fit analysis) with the use of Biaevaluation 4.0.1 software. Purified antibodies were diluted in HEPES-buffered saline for capture across goat anti-mouse IgG specific reaction surfaces. Mouse antibodies to be captured as a ligand (25 μg/ml) were injected over reaction matrices at a flow rate of 5 μl/min. The association and dissociation rate constants, kₒₙ (unit M⁻¹s⁻¹) and koff (unit s⁻¹) were determined under a continuous flow rate of 25 μl/min Rate constants were derived by making kinetic binding measurements at ten different antigen concentrations ranging from 10-200 nM. […] Binding is recorded as a function of time and kinetic rate constants are calculated.
# human IL-13 wild type [2] = target: T2, human IL-13 wild type; assay: cell-based or functional assay
# human IL-13 wild type [3] = target: T2, human IL-13 wild type; assay: cell-based or functional assay; remark: listed apart in the source
# [4] = target: T3, human IL-13 variant (R130Q) (human, UniProt P35225 35-146); assay: cell-based or functional assay
# human IL-13 wild type [5] = target: T2, human IL-13 wild type; assay: cell-based or functional assay; remark: listed apart in the source
# [6] = target: T3, human IL-13 variant (R130Q); assay: cell-based or functional assay; remark: listed apart in the source
# cynomolgus IL-13 [7] = target: T4, cynomolgus IL-13 (cynomolgus, UniProt Q0PW92 21-132); assay: cell-based or functional assay
# human IL-13 wild type [8] = target: T2, human IL-13 wild type; assay: SPR (Biacore), mAb captured, IL-13 as analyte
# Protocol: as §1
# [9] = target: T3, human IL-13 variant (R130Q); assay: SPR (Biacore), mAb captured, IL-13 as analyte
# Protocol: as §1
# mouse IL-13 = target: T1, mouse IL-13; assay: indirect ELISA, captured mAb, biotinylated mouse IL-13
# Protocol: Murine anti-human IL-13 mAbs were prepared at various concentrations ranging from 0.1 to 100 ng/ml in PBS containing 0.1% BSA; 50 ul of each antibody dilution was added to the coated ELISA plate and incubated for 1 hour at room temperature. Wells were washed 3 times with PBS containing 0.05% Tween-20. […] Wells were washed 3 times with PBS containing 0.05% Tween-20. Streptavidin HRP (Pierce #21126, Rockland, Ill.) was diluted 1:20000 in PBS containing 0.1% BSA; […] was added and the plates incubated for 1 hour at room temperature. Plates were washed 3 times with PBS containing 0.05% Tween-20. Fifty microliters of TMB solution (Sigma # T0440, St. Louis, Mo.) was added to each well and incubated for 10 minutes at room temperature. The reaction was stopped by addition of 1N sulphuric acid. Plates were read spectrophotmetrically at a wavelength of 450 nm.
# cynomolgus IL-13 [10] = target: T4, cynomolgus IL-13; assay: SPR (Biacore)
# Protocol: as §1
# rhesus IL-13 [11] = target: T5, rhesus IL-13 (rhesus, UniProt Q864V6 21-132, limits assumed); assay: SPR (Biacore)
# Protocol: as §1
# human IL-13 wild type [12] = target: T2, human IL-13 wild type; assay: cell-based or functional assay; remark: listed apart in the source
# cynomolgus IL-13 [13] = target: T4, cynomolgus IL-13; assay: cell-based or functional assay; remark: listed apart in the source
# rhesus IL-13 [14] = target: T5, rhesus IL-13; assay: cell-based or functional assay
# T3 sequence (P35225 35-146 limits assumed, stated change not applied): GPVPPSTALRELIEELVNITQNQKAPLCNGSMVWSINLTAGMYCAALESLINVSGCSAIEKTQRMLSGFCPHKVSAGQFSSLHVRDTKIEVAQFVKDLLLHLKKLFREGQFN
# T4 sequence (Q0PW92 entry or part of it): as the sequence (P35225 35-146 limits assumed, stated change not applied) above, with G1S, R10K, M42V, S67N, H83R, L100V counted along it
# T2 sequence (P35225 other isoform, or with tags, fused parts or gaps limits assumed): as the sequence (P35225 35-146 limits assumed, stated change not applied) above, with Q110R counted along it
# T5 sequence (Q864V6 21-132 limits assumed): as the sequence (P35225 35-146 limits assumed, stated change not applied) above, with G1S, P5R, R10K, M42V, S67N, H83R, L100V, Q110R counted along it
Binder,Kd (human IL-13 wild type [1]) [nM],koff (human IL-13 wild type [1]) [s⁻¹],kon (human IL-13 wild type [1]) [M⁻¹ s⁻¹],"Potency (IC50), A-549 bioassay (human IL-13 wild type [3]) [pM]","Potency (IC50), A-549 bioassay [4] [pM]",other results
"13C5-Chim (antibody, human IgG1, V domains shown, also called chimeric 13C5) VH: QVTLKESGPGILQPSQTLSLTCSFSGFSLSTSDMGVDWIRQPSGKGLEWLAHIWWDDVKRYNPALKSRLTISKDTSSSQVFLMLASVDTADTATYYCARTVSSGYIYYAMDYWGQGTSVTVSS VL: DIQMTQTASSLSASLGDRVTISCRASQDIRNYLNWYQRKPDGTVKLLIFYTSKLHSGVPSRFSGSGSGTDYSLTIRNLEQEDIATYFCQQGNTLPLTFGGGTKLEIKR",0.0568,9.65e-05,1.7e+06,107,37,"Average IC50, IL-13-induced TARC production by A-549 cells (human IL-13 wild type [2]): 191 pM"
"5G1.1 (antibody, human IgG1, V domains shown, Humanized) VH: EVQLVQSGAEVKKPGASVKVSCKASGYTFTTYGVSWVRQAPGQGLEWIGEIYPGNYNTYYNEKFRGKATMTTDTSTSTAYMELRSLRSDDTAVYYCSRWRTSYFSDYGYFDYWGQGTTVTVSS VL: DVVMTQSPLSLPVTLGQPASISCRSSQSLVHSHGNTYLHWYQQRPGQSPRLLIYTVSNRFSGVPDRFSGSGSGTDFTLKISRVEAEDVGVYYCSQSTHVPYTFGGGTKVEIKR",0.0272,2.14e-05,786000,29,74.1,
"21D9 (antibody, V domains shown) VH: QVQLQQSGDDLVKPGASVKLSCKASGYTFTSYWINWIKQRPGQGLEWIGHIAPGSGETYDNEMFKDKAKLTVDTSSNTAYIHLSSLSSEDSAVYFCARGSFTFFYAMDYWGQGTSVTVSS VL: DVLMTQTPLSLPVSLGDQASISCRSSQNIVHSNGKTYLEWYLQRPGQSPKLLIYKVSNRFSGVPDRFSGSGSGTDFTLKISRVEAEDLGVYYCFQGSHVPYTFGGGTKLEIKR",,,,,,"Average IC50, IL-13-induced TARC production by A-549 cells (human IL-13 wild type [5]): 0.0682 nM; Average IC50, IL-13-induced TARC production by A-549 cells [6]: 0.136 nM; Average IC50, IL-13-induced TARC production by A-549 cells (cynomolgus IL-13 [7]): 0.34 nM; Kd (human IL-13 wild type [8]): 0.0772 nM; koff (human IL-13 wild type [8]): 6.58e-05 s⁻¹; kon (human IL-13 wild type [8]): 852000 M⁻¹ s⁻¹; Kd [9]: 0.0744 nM; koff [9]: 6.18e-05 s⁻¹; kon [9]: 831000 M⁻¹ s⁻¹; binding result (mouse IL-13): no binding (tested: 0.1 to 100 ng/ml)"
"22D10 (antibody, V domains shown) VH: QVQLQQSGDDLVKPGASVKLSCKASGYTFTSYWINWIKQRPGQGLEWIGHIAPGSGETYDNEMFKDKAKLTVDTSSSTAYIHLSSLSSEDSAVYFCARGSFTFFYAMDYWGQGTSVTVSS VL: DVLMTQTPLSLPVSLGDQASISCRSSQNIVHSNGKTYLEWYLQRPGQSPKLLIYKVSNRFSGVPDRFSGSGSGTDFTLKISRVEAEDLGVYYCFQGSHVPYTFGGGTKLEIKR",,,,,,"Average IC50, IL-13-induced TARC production by A-549 cells (human IL-13 wild type [5]): 0.284 nM; Average IC50, IL-13-induced TARC production by A-549 cells [6]: 0.54 nM; Average IC50, IL-13-induced TARC production by A-549 cells (cynomolgus IL-13 [7]): 6.11 nM; Kd (human IL-13 wild type [8]): 0.356 nM; koff (human IL-13 wild type [8]): 6.5e-05 s⁻¹; kon (human IL-13 wild type [8]): 182000 M⁻¹ s⁻¹; Kd [9]: 0.632 nM; koff [9]: 0.000155 s⁻¹; kon [9]: 245000 M⁻¹ s⁻¹; binding result (mouse IL-13): no binding (tested: 0.1 to 100 ng/ml)"
"13C5.1 (antibody, human IgG1, V domains shown, Humanized) VH: EVTLKESGPVLVKPTETLTLTCTFSGFSLSTSDMGVDWIRQPPGKALEWLAHIWWDDVKRYNPALKSRLTISKDTSKSQVVLTMTNMDPVDTATYYCARTVSSGYIYYAMDYWGQGTTVTVSS VL: DIQMTQSPSSLSASVGDRVTITCRASQDIRNYLNWYQRKPGKVVKLLIYYTSKLHSGVPSRFSGSGSGTDFTLTISSLQPEDVATYYCQQGNTLPLTFGGGTKVEIKR",0.71,0.000474,668000,868,369,
"9C11-Chim (antibody, human IgG1, V domains shown) VH: QVRLQQPGAELVRPGASVKLSCKASGYTFTSSWIHWVNQRPGQGLEWIGMIHPSDSETRLNQKFKDKATLTVDKSSSTAYMQLSSPTSEDSAVYYCASTATDFDYWGQGTTLTVSS VL: DVVLTQTPLSLPVNIGDQASISCRSTQTLLNSDGFTYLDWYLQKPGQSPQLLIYLVSNRFSGVPDRFSGSGSGTDFTLKISRVEAEDLGVYYCFQNNYLPLTFGAGTKLELKR",,,,,,"Average IC50, IL-13-induced TARC production by A-549 cells (human IL-13 wild type [2]): 123 pM"
"5G1.5 (antibody, human IgG1, V domains shown, Humanized; The heavy chain row is printed 'VN 5G1.5') VH: QVQLVQSGAEVKKPGASVKVSCKASGYTFTTYGVSWVRQAPGQGLEWIGEIYPGNYNTYYNEKFRGKATLTADKSTSTAYMELSSLRSEDTAVYYCSRWRTSYFSDYGYFDYWGQGTLVTVSS VL: DIVMTQSPLSLPVTPGQPASISCRSSQSLVHSHGNTYLHWYLQKPGQSPKLLIYTVSNRFSGVPDRFSGSGSGTDFTLKISRVEAEDVGVYYCSQSTHVPYTFGGGTKVEIK",0.022,1.91e-05,869000,114,65.5,

# More lines, in order of falling Kd (human IL-13 wild type [1]), values ahead:
Kd (human IL-13 wild type [1]) [nM],koff (human IL-13 wild type [1]) [s⁻¹],kon (human IL-13 wild type [1]) [M⁻¹ s⁻¹],"Potency (IC50), A-549 bioassay (human IL-13 wild type [3]) [pM]","Potency (IC50), A-549 bioassay [4] [pM]",Binder,other results
0.25,,,,,"13C5.5L2EL3F (antibody, V domains shown, constant regions not restated for this variant) VH: EVTLRESGPGLVKPTQTLTLTCTLYGFSLSTSDMGVDWIRQPPGKGLEWLAHIWWDDVKRYNPALKSRLTISKDTSKNQVVLKLTSVDPVDTATYYCARTVSSGYIYYAMDYWGQGTLVTVSS VL: DIQMTQSPSSLSASVGDRVTISCRASQDIRNYLNWYQQKPGKAPKLLIFYTSMKPRGVPSRFSGSGSGTDYTLTISSLQPEDIATYYCQQGLTPPLTFGGGTKVEIK","Kd (cynomolgus IL-13 [10]): 0.32 nM; Kd (rhesus IL-13 [11]): 0.13 nM; Potency (IC50), A-549 bioassay (human IL-13 wild type [12]): 0.12 nM; Potency (IC50), A-549 bioassay (cynomolgus IL-13 [13]): 0.48 nM; Potency (IC50), A-549 bioassay (rhesus IL-13 [14]): 0.26 nM"
0.105,8.81e-05,835000,29.5,55.3,"5G1.2 (antibody, human IgG1, V domains shown, Humanized) VH: EVQLVQSGAEVKKPGASVKVSCKASGYTFTTYGVSWVRQAPGQGLEWIGEIYPGNYNTYYNEKFRGKATLTADKSTSTAYMELSSLRSDDTAVYFCSRWRTSYFSDYGYFDYWGQGTTVTVSS VL: DVVMTQSPLSLPVTLGQPASISCRSSQSLVHSHGNTYLHWYQQRPGQSPRLLIYTVSNRFSGVPDRFSGSGSGTDFTLKISRVEAEDVGVYFCSQSTHVPYTFGGGTKVEIKR",
0.0979,0.000123,1.26e+06,193,130,"13C5.2 (antibody, human IgG1, V domains shown, Humanized) VH: EVTLKESGPVLVKPTETLTLTCTFSGFSLSTSDMGVDWIRQPPGKALEWLAHIWWDDVKRYNPALKSRLTISKDTSKSQVVLTMTNMDPVDTATYYCARTVSSGYIYYAMDYWGQGTTVTVSS VL: DIQMTQTPSSLSASVGDRVTISCRASQDIRNYLNWYQRKPGKVVKLLIFYTSKLHSGVPSRFSGSGSGTDYTLTISSLQPEDVATYFCQQGNTLPLTFGGGTKVEIKR",
0.0417,3.82e-05,915000,76.9,69.2,"5G1-Chim (antibody, V domains shown, also called chimeric 5G1) VH: QVQLQQSGAELARPGTSVKLSCKASGYTFTTYGVSWVKQRTGQGLEWIGEIYPGNYNTYYNEKFRGKATLTADKSSSTAYMQLSSLTSEDSAVYFCSRWRTSYFSDYGYFDYWGQGTTLTVSS VL: DVVMTQTPLSLPVSLGDQASISCRSSQSLVHSHGNTYLHWYLQKPGQSPKLLIYTVSNRFSGVPDRFSGSGSGTDFTLKISRVEAEDLGVYFCSQSTHVPYTFGGGTKLEIKR","Average IC50, IL-13-induced TARC production by A-549 cells (human IL-13 wild type [2]): 41 pM"
